The values below come from US10724034B2, “Genetic encoding of chemical post-translational modification for phage-displayed libraries” (THE GOVERNORS OF THE UNIVERSITY OF ALBERTA, priority 2014, dated 2020).

In one assay the target is human Galectin-3 (Homo sapiens, UniProt P17931). As to the kind of experiment: ELISA-like competition assay: inhibition of HRP-Lactose binding to surface-immobilized Galectin-3. The following applies: for Times more potent than MeGal at inhibiting HRP-Lac binding to Galectin-3: versus MeGal. An excerpt:
Using an ELISA-like competition assay (FIGS. 12, 13), the binding activity of these glycopeptides to carbohydrate recognition domain (CRD) of the human Galectin-3 and their ability to compete with binding of Lactose-conjugated horseradish peroxidase (HRP), were validated (FIG. 12). As references, we used known Gal3 ligands, such as lactose, Methyl-β-D-galactopiranoside (MeGal) and tetrasaccharide Lacto-N-Tetraose (LNT).
FIG. 12 illustrates an evaluation of activity of hits identified from genetically-encoded libraries of glycopeptides against […]. The assay measures that inhibitory constant (denoted as Effective concentrations of half-maximal response or EC50) of compounds in the inhibition of the interaction between soluble HRP-Lactose and surface-immobilized Galectin-3.
The competitive activity is quantified as decrease in color development by HRP-lac conjugate bound to Galectin-3 coated at 10 μg/ml concentration on polystyrene 96-well plates.
In general terms: ELISA stands for enzyme-linked immunosorbent assay.

Assay [1] has as its target T1, human Galectin-3 protein (human, UniProt P17931 2-250, limits assumed).
T1 construct: also called Gal3
The assay is described as follows: ELISA-like competition with HRP-Lactose on Galectin-3 coated wells; reference MeGal.

Assay [2] addresses T1, human Galectin-3 protein. As to the kind of experiment: ELISA-like competition with HRP-Lac on Galectin-3 coated plates; reference MeGal.
For assay [3], the target named is T1, human Galectin-3 protein. As to the kind of experiment: ELISA-like competition with HRP-Lac on Galectin-3 coated plates; reference lactose.
For assay [4], the target named is T2, Bovine carbonic anhydrase II (bovine, UniProt P00921 2-260).
T2 construct: Commercial protein; also called BCA
T2 sequence (P00921 2-260 limits assumed): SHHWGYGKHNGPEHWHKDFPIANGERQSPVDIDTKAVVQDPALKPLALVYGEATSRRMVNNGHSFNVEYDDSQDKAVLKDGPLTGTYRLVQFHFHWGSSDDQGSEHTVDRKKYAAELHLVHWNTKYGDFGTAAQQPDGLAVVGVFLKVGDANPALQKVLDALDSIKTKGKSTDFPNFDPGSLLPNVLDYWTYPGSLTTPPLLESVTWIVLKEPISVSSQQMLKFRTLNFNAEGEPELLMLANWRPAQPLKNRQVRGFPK
As to the kind of experiment: panning/deep seq., Carbonic rep 1 [Carbonic Anhydrase].

The target in assay [5] is T2, Bovine carbonic anhydrase II. As to the kind of experiment: panning/deep seq., Carbonic rep 2 [Carbonic Anhydrase].
For assay [6] the target is unchanged. As to the kind of experiment: panning/deep seq., Ratio col 1 (Carbonic/Blank by arithmetic) [Carbonic Anhydrase].
The target is the same in assay [7]. As to the kind of experiment: panning/deep seq., Ratio col 3 (Carbonic/Bulk amplified by arithmetic) [Carbonic Anhydrase].
Assay [8] has the same target. As to the kind of experiment: panning/deep seq., Ratio col 2 (Carbonic/Naive by arithmetic) [Carbonic Anhydrase].
The target is the same in assay [9]. The assay is described as follows: panning/deep seq., Carbonic rep 3 [Carbonic Anhydrase].
Assay [10] shares this target. As to the kind of experiment: ITC, replicate [row SA-TRPA, middle panel]. The protocol: (§1) FIG. 9 provides additional replicates of raw ITC data of sulfonamide-peptide (SA-XXXX) binding to carbonic anhydrase. Raw data obtained for 30 injections of ligands (20-95 μM) into a solution of carbonic anhydrase (2.5-12 μM) at 4-min intervals and 30° C. is shown.
Assay [11] has the same target. The assay is described as follows: ITC, replicate [row SA-TRPA, left panel].
For assay [12] the target is unchanged. As to the kind of experiment: ITC, replicate [row SA-TRPA, right panel]. The protocol:
as §1
(ITC needs no label: the signal is the heat of the interaction.)

For assay [13] the target is unchanged. The assay is described as follows: isothermal titration calorimetry; reference SA-GGGG. The protocol:
as §1

For assay [14] the target is unchanged. As to the kind of experiment: isothermal titration calorimetry, 30 C, single binding site model; selected peptide SA-WIVP (SEQ ID NO:26). The procedure:
as §1

The target is the same in assay [15]. The assay is described as follows: ITC, replicate [row SA-WIVP, middle panel]. The protocol: as §1
The target is the same in assay [16]. The assay is described as follows: ITC, replicate [row SA-WIVP, right panel]. The procedure:
as §1

Assay [17] deals with T1, human Galectin-3 protein. The assay is described as follows: competition ELISA: HRP-Lactose binding to plate-coated Galectin-3 [upper left panel]. In outline: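 In an ELISA-like format, polystyrene 96-well plates carried the carbohydrate recognition domain of human Galectin-3, coated at 10 μg/ml. Test molecules competed with a lactose-conjugated horseradish peroxidase probe, measured as reduced colour development, and the half-maximal inhibitory concentration was derived from the resulting curves.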

The target in assay [18] is T2, Bovine carbonic anhydrase II. As to the kind of experiment: isothermal titration calorimetry, 30 C, single binding site model; control peptide SA-GGGG (SEQ ID NO:101). The protocol: as §1
Assay [19] has the same target. The assay is described as follows: ITC, replicate [row SA-GGGG, middle panel]. The procedure: as §1
Assay [20] has the same target. As to the kind of experiment: ITC, replicate [row SA-GGGG, right panel].

Ends that are not written are not given here. SA = 4-(aminooxymethyl)benzenesulfonamide joined by oxime ligation to the periodate-oxidised N-terminal serine; Glu = glucose (not glutamate); Rha = rhamnose

human Galectin-3, sequence (P17931 whole entry, the tested form may be a part): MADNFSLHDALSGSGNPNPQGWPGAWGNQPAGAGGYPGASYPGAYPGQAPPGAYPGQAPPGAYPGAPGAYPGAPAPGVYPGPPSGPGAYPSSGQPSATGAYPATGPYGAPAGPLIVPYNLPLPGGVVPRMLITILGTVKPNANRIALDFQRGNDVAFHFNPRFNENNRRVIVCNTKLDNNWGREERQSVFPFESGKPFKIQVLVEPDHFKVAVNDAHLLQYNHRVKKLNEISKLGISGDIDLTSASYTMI
T1 sequence (P17931 2-250 limits assumed): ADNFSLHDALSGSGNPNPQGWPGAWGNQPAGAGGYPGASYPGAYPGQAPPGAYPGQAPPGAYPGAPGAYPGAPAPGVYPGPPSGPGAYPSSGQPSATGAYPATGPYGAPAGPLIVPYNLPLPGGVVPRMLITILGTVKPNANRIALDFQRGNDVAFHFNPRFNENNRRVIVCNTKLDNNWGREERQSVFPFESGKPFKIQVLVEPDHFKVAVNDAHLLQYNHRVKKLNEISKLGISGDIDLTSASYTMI

Turning to “Gal-PAPT: Galactose modified glycopeptide, SEQ ID NO:105”, the EC50 in the assay with human Galectin-3 (FIG. 12, read-out: EC50, inhibition of interaction between soluble HRP-Lactose and surface-immobilized Galectin-3) stood at 14 µM.

As for “Glu-SIYG (glucose-modified tetramer peptide)”, in the assay with human Galectin-3 protein [1], the fold higher potency than MeGal came out at 10 fold.

On to “Glu-SIYG: combination of glucose and tetramer peptide, SEQ ID NO:106 (also: residue 1 modified with glucose, attachment not given here)”, for which the “Times more potent than MeGal at inhibiting HRP-Lac binding to Galectin-3” value in the assay with human Galectin-3 was determined as 10 times.

For the molecule Rha-IWVR (rhamnose-peptide conjugate), the fold more potent inhibitor than MeGal in the assay with human Galectin-3 protein [2] came out at 400 fold. The fold better than Lactose control with human Galectin-3 protein [3] worked out at 10 fold.

In the case of “Rha-IWVR: Rhamnose-peptide conjugate, SEQ ID NO:108 (also: residue 1 conjugated with rhamnose, attachment not given here)”, the “Potency in HRP-Lac competition compared in words with a control” value in the assay with human Galectin-3 (comparison with Lactose, MeGal or LNT) was “in the same order of the LNT”. Also, the “Times better than Lactose at inhibiting HRP-Lac binding to Galectin-3” value with human Galectin-3 (versus Lactose) is listed as 10 times. Also, the “Times more potent than MeGal at inhibiting HRP-Lac binding to Galectin-3” value with human Galectin-3 is listed as 400 times.

Consider SA-WPPY (peptide), for which the copy number turned out to be 17 in assay [4], 16 in assay [5] and 20 in assay [9]. Also, the figures for the Ratio in assay [6], in [7] and in [8] were 59, 5 and 4, respectively.

As to SA-WQQQ (peptide), the values for the copy number in assay [4], in [5] and in assay [9] were 403, 422 and 596, respectively. Moreover, the Ratio in assay [6] turned out to be 1580; in assay [7], 102; in assay [8], 178.

For SA-WSVM (peptide), the copy number in assay [4] worked out at 3; in assay [5] it was 2; in [9] it was 4. Moreover, the Ratio in assay [6], in assay [7] and in assay [8] was 10 in each case.

In the case of SA-WTSG (peptide), the figures for the copy number in assay [4], in assay [5] and in assay [9] were 63, 30 and 46, respectively. The Ratio in [6] is 154; in [7], 11; in assay [8], 9.

In the case of SA-WTWL (peptide), the figures for the copy number in assay [4], in assay [5] and in assay [9] were 43, 57 and 26, respectively. For the same molecule, the Ratio amounted to 140 in [6], 21 in [7] and 140 in [8].

On to SA-WTYW (peptide), for which the copy number in assay [4] turned out to be 18; in assay [5], 33; in assay [9], 15. Moreover, the Ratio in assay [6] was found to be 73; in [7], 8; in assay [8], 6.

For SA-WYKL (peptide), the results for the copy number in [4], in assay [5] and in assay [9] were 862, 1160 and 285, respectively. Further, the Ratio amounted to 2560 in assay [6], 121 in assay [7] and 288 in assay [8].

As for SA-YGTH (peptide), the values for the copy number in assay [4], in assay [5] and in assay [9] were 50, 118 and 63, respectively. Moreover, the Ratio in [6] was determined as 257; in assay [7], 7; in [8], 26.

In the case of SA-YMSN (peptide), the results for the copy number in [4], in [5] and in assay [9] were 51, 25 and 53, respectively. Also, the Ratio in assay [6] worked out at 143; in assay [7], 10; in assay [8], 143.

Consider SA-YQYS (peptide), for which the copy number amounted to 154 in [4], 194 in assay [5] and 51 in assay [9]. In addition, the Ratio was found to be 443 in assay [6], 44 in assay [7] and 44 in assay [8].

Consider {SA}-TRPA-NH2 (also: N-terminal SA cap oxime-linked, made from oxidised N-terminal Ser) [SA-TRPA], for which the Kd in assay [10] was found to be 31 nM; in assay [11] it was 33 nM; in [12], 38 nM.

B1: SA-WIVP (sulfonamide-modified peptide) (peptide)
peptide: {SA}-WIVP-NH2
modifications: also: N-terminal SA cap oxime-linked, made from oxidised N-terminal Ser
notes: Synthetic conjugate made from the peptide S-WIVP; The N-terminal Ser is turned into the oxime-linked sulfonamide; also called sulfonamide-peptide; SA-XXXX
For B1, in assay [13], the “fold stronger affinity than control peptide SA-GGGG” value came out at 30 fold. The results for the Kd in assay [14], in assay [15] and in assay [16] were 5 nM, 9 nM and 6 nM, respectively.

Turning to Rha-PQLP (not fully specified; printed as Rha-PQLP) [Rha-PQLP], the “IC50 (read off the curve)” value in the assay with human Galectin-3 protein [17] was roughly 1 mM.

B2: SA-GGGG (control sulfonamide-modified peptide) (peptide)
peptide: {SA}-GGGG-NH2
modifications: also: N-terminal SA cap oxime-linked, made from oxidised N-terminal Ser
notes: Control peptide in ITC; also called control peptide SA-GGGG
In the case of B2, the Kd in assay [18] came to 150 nM; in assay [19], 130 nM; in [20], 140 nM.

The EC50 is the concentration needed to bring the measured effect to its halfway point. The term Kd denotes the constant that tells how readily two partners part at equilibrium.
